Test results taken from PMC6754446, “Regulation of the endosomal SNX27-retromer by OTULIN” (Nature Communications, 2019).
Blank lines part the entries; values can stand above or below the binder they belong to. No end group written: not given here.

Columns and labels:
Settings in all cases: both partners purified
OTULINcat (aa 80-352) [1] = biological target: T1, OTULINcat (aa 80-352) (human, UniProt Q96BN8 80-352); assay: ITC; PDZ variant (150-450 µM) in the syringe, OTULINcat variant (20-30 µM) in the cell; 25 °C; 20 mM HEPES pH 7.4, 200 mM NaCl, 2 mM TCEP; single-site binding model
SNX27PDZ (aa 40–135) = SNX27PDZ (aa 40–135) (human, UniProt Q96L92 40-135); assay: ITC; 25 °C, 20 mM HEPES pH 7.4, 200 mM NaCl, 2 mM TCEP; 20–30 µM OTULINcat variant in the cell, 150–450 µM PDZ variant in the syringe; single-site model
OTULINcat (aa 80-352) [2] = biological target: T1, OTULINcat (aa 80-352); assay: ITC; SHANK1-3 PDZ in the syringe, OTULINcat in the cell; 30 °C; 20 mM HEPES pH 7.4, 200 mM NaCl, 2 mM TCEP; single-site binding model
OTULINcat (aa 80–352) = biological target: T2, OTULINcat (aa 80–352) (human, UniProt Q96BN8 80-352); assay: ITC; 25 °C, 20 mM HEPES pH 7.4, 200 mM NaCl, 2 mM TCEP; 20–30 µM OTULINcat variant in the cell, 150–450 µM PDZ variant in the syringe; single-site model
T2 construct: OTULIN, human, aa 80–352; His6-3C construct in pOPIN-B; tag cleaved with 3C protease; source: E. coli Rosetta2 (DE3) pLacI, purified (HisTrap, anion exchange, SEC)

[3] = biological target: SNX27 PDZ domain (aa 40-135) (human, UniProt Q96L92 40-135); assay: ITC; SNX27PDZ in the cell; OTULINcat, OTULIN PDZbm peptide or VPS26A in the syringe; 25 °C; 20 mM HEPES pH 7.4, 200 mM NaCl, 2 mM TCEP; single-site binding model

T1 sequence (Q96BN8 80-352): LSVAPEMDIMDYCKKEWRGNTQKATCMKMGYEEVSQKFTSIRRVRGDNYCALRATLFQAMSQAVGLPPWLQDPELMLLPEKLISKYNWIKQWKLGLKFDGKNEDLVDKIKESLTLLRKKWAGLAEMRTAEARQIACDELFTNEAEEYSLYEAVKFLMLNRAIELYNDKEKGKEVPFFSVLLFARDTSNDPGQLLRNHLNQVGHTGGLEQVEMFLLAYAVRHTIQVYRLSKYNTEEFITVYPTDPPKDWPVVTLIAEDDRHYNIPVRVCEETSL
T2 sequence (Q96BN8 80-352): as above

B1: LNX2 PDZ3 (465-560) (domain or fragment, UniProt Q8N448 465-560, looked up)
chain: QEKHITVKKEPHESLGMTVAGGRGSKSGELPIFVTSVPPHGCLARDGRIKRGDVLLNINGIDLTNLSHSEAVAMLKASAASPAVALKALEVQIVEE
notes: LNX2, third PDZ domain, residues 465-560; The printed DNA (288 nt) fits 96 residues; source: E. coli, purified analogous to SNX27PDZ (pOPIN-S vector)
Kd (OTULINcat (aa 80-352) [1]): 57.1 µM
stoichiometry N (OTULINcat (aa 80-352) [1]): 0.87

B2: PSD95 PDZ2 (155-249) (domain or fragment, UniProt P78352 155-249, looked up)
chain: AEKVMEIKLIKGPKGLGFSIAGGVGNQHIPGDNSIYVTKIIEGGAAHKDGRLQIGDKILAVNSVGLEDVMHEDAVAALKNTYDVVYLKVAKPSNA
notes: PSD95, second PDZ domain, residues 155-249; The printed DNA (285 nt) fits 95 residues; source: E. coli, purified analogous to SNX27PDZ (pOPIN-S vector)
Kd (OTULINcat (aa 80-352) [1]): 98.9 µM
stoichiometry N (OTULINcat (aa 80-352) [1]): 0.91

B3: OTULIN C-terminal PDZbm peptide (aa 344–352) (peptide, UniProt Q96BN8 344-352, looked up)
peptide: VRVCEETSL
notes: OTULIN, human, aa 344–352; also called OTULIN PDZbm peptide
Kd (SNX27PDZ (aa 40–135)): 1.1 µM

B5: NHERF1 PDZ2 (150-235) (domain or fragment, UniProt O14745 150-235, looked up)
chain: LRPRLCTMKKGPSGYGFNLHSDKSKPGQFIRSVDPDSPAEASGLRAQDRIVEVNGVCMEGKQHGDVVSAIRAGGDETKLLVVDRET
notes: The printed DNA (258 nt) fits 86 residues; source: E. coli, purified analogous to SNX27PDZ (pOPIN-S vector)
Kd (OTULINcat (aa 80-352) [1]): 35.6 µM
stoichiometry N (OTULINcat (aa 80-352) [1]): 1.14

B9: RhoGEF PDZ domain (41-123) (domain or fragment, UniProt O15085 41-123, looked up)
chain: TGLVQRCVIIQKDQHGFGFTVSGDRIVLVQSVRPGGAAMKAGVKEGDRIIKVNGTMVTNSSHLEVVKLIKSGAYVALTLLGSS
notes: RhoGEF, PDZ domain, residues 41-123; The printed DNA (249 nt) fits 83 residues; source: E. coli, purified analogous to SNX27PDZ (pOPIN-S vector)
Kd (OTULINcat (aa 80-352) [1]): 38.3 µM
stoichiometry N (OTULINcat (aa 80-352) [1]): 0.96

B10: OTULIN C-terminal PDZbm peptide (aa 344-352) (peptide)
peptide: Ac-VRVCEETSL
notes: OTULIN, human, C-terminal PDZbm peptide, aa 344-352; also called OTULIN PDZbm peptide
stoichiometry N [3]: 1.07

The remaining lines, values ahead:

Kd (OTULINcat (aa 80-352) [2]): 23.9 µM
stoichiometry N (OTULINcat (aa 80-352) [2]): 0.99
B4: SHANK2 PDZ domain (239-347) (domain or fragment)
chain: SDCIIEEKTVVLQKKDNEGFGFVLRGAKADTPIEEFTPTPAFPALQYLESVDEGGVAWQAGLRTGDFLIEVNNENVVKVGHRQVVNMIRQGGNHLVLKVVTVTRNLDPD
modifications: Printed 239-347 follows the older 1470-aa Q9UPX8 numbering; offset +379 to the current 1849-aa entry, so that the start falls on SDCIIEEKTV. The His6-SUMO tag was cleaved off.

stoichiometry N (OTULINcat (aa 80-352) [1]): 0.38
B6: Syntenin1 PDZ1 (108-196) (domain or fragment, UniProt Q9JI92 108-196, looked up)
chain: AEIKQGIREVILCKDQDGKIGLRLKSVDNGIFVQLVQANSPASLVGLRFGDQVLQINGENCAGWSSDKAHKVLKQAFGEKITMTIRDRP
notes: Syntenin-1, first PDZ domain, residues 108-196; The printed DNA (267 nt) fits 89 residues; source: E. coli, purified analogous to SNX27PDZ (pOPIN-S vector)

Kd (OTULINcat (aa 80-352) [2]): 26.4 µM
stoichiometry N (OTULINcat (aa 80-352) [2]): 1
B7: SHANK3 PDZ domain (563-671) (domain or fragment)
chain: SDYVIDDKVAVLQKRDHEGFGFVLRGAKAETPIEEFTPTPAFPALQYLESVDVEGVAWRAGLRTGDFLIEVNGVNVVKVGHKQVVALIRQGGNRLVMKVVSVTRKPEED
modifications: Printed 563-671 follows the older 1731-aa SHANK3 numbering; offset +75 to the current 1806-aa entry (inferred by homology to the SHANK2 start, 8 residues before the annotated PDZ). The His6-SUMO tag …

Kd (OTULINcat (aa 80–352)): 1710 µM
B8: Syntenin1 PDZ1 (domain or fragment, UniProt O00560 114-193, looked up)
chain: EVILCKDQDGKIGLRLKSIDNGIFVQLVQANSPASLVGLRFGDQVLQINGENCAGWSSDKAHKVLKQAFGEKITMTIRDR
notes: Syntenin1, PDZ1; source: expressed and purified analogous to SNX27PDZ (E. coli Rosetta2 (DE3) pLacI); His6-SUMO cleaved with SUMO protease

Kd (OTULINcat (aa 80-352) [2]): 22.6 µM
stoichiometry N (OTULINcat (aa 80-352) [2]): 1
B11: SHANK1 PDZ domain (654-763) (domain or fragment, UniProt Q9Y566 654-763, looked up)
chain: GSDYIIKEKTVLLQKKDSEGFGFVLRGAKAQTPIEEFTPTPAFPALQYLESVDEGGVAWRAGLRMGDFLIEVNGQNVVKVGHRQVVNMIRQGGNTLMVKVVMVTRHPDMD
notes: source: E. coli, purified analogous to SNX27PDZ (pOPIN-S vector)
